Results as given in publication PMC4490944 (Journal of immunology (Baltimore, Md. : 1950), 2015).
Blank lines part the entries; values can stand above or below the molecule they belong to. No end group written: not given here. Alexa 488 = Alexa-488 fluorophore (from tetrafluorophenyl ester) on the Lys side-chain amine

Legend:
[1] = Peptide occupancy, quantitative amino acid analysis of acid-eluted material; details: control DM sample
[2] = molecular target: T1, HLA-DR1 (DR1) (DRA*0101/DRB1*010101) (Homo sapiens, UniProt P01903+P01911, A100R/D57E/F55L/F60I/F76Y/I96L/L162R/M171V/P40L/Q125E/R42F/V115G/Y59C); test: MHC II stabilization assay; details: 1 μM DR1-W1A with 1 μM DM, or 1 μM DM and 50 μM W1A, 37 °C 1 hour, pH 5.5, Superdex200; at least four independent experiments
[3] = tested on: MHC II; details: cited from earlier work
[4] = molecular target: T1, HLA-DR1 (DR1) (DRA*0101/DRB1*010101); test: Numerical modeling; format: binding; details: best fit value, Scheme V; DM-MHC resolves into inactive MHC II in the absence of peptides; kept the same for HA and CLIP; 0.4 μM DR1, 0.4 μM DM
[5] = molecular target: DM-MHC II intermediate (complex of HLA-DM with active peptide-free DR1) (human) (UniProt P28067); test: fluorescence polarisation

Molecule: DM: soluble extracellular domains of recombinant DM expressed in Drosophila S2 cells
amino acid content of acid-eluted material [1]: 3.46 nmol amino acid per 50 nmol protein

Molecule: Ac-GSDARFLRGYHQYA [W1A]
inhibition of aggregation of DR1 loaded with weakly binding peptide W1A [2]: Excess of peptides but not DM could inhibit the aggregation of MHC II | susceptibility to DM-mediated peptide release ([3]; DR1-bound): extremely susceptible to DM-mediated peptide release

k5 [4]: 0.36 min⁻¹
Molecule: Ac-VSKMRMATPLLMQ [CLIP]
intrinsic and DM-catalyzed dissociation half-life ([3]; as previously reported): ~ 5 hours

k6 (another combination that gives the same fit) [5]: 47500 M⁻¹ s⁻¹ | k6 (peptide binds the intermediate DM-MHC to give DM-MHCpep') [5]: 86800 M⁻¹ s⁻¹ | k-6 (peptide leaves DM-MHCpep') [5]: 0.022 min⁻¹
Molecule: Ac-VSK(Alexa 488)MRMATPLLMQ [Alexa488-labeled CLIP peptide (Ac-…)]
